The values below are quoted from earlier work in article PMC2667909.

The target in this data set is Histone H3 peptide (H3K27me3) (Drosophila melanogaster) (UniProt P02299).

Take “Polycomb (Pc) chromodomain (from UniProt P26017)”: the Kd – broadly, a measure of binding affinity in units of concentration – was 5 µM.
